What is called kon is the second-order rate constant of association. Usually Kd stands for a measure of binding affinity in units of concentration.

The text below walks through data of patent US20170081400A1 (CEPHALON, published 2017).

The target of test [1] is T1, human TL1A extracellular domain with N-terminal HIS and FLAG tag (human, UniProt O95150 72-251).
T1 construct: whole entry named. ~70 kDa fraction purified by gel filtration
T1 sequence: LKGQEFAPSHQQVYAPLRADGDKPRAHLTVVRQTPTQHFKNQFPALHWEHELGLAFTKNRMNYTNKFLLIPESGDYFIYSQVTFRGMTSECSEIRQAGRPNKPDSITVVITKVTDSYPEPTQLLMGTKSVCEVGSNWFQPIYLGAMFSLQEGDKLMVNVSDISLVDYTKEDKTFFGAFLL
Description: KinExA, 320-587 as CBP, free 320-587 captured on TL1A-coated Sepharose beads; average of two. A general note: Kinetic exclusion samples the free partner from a solution-phase mixture.

Test [2] has as its target T1, human TL1A extracellular domain with …. Put plainly: KinExA, 320-587 as CBP, free 320-587 captured on TL1A-coated Sepharose beads; repeat 1.
Test [3] shares this target. Put plainly: KinExA, TL1A as CBP, free TL1A captured on 320-587-coated PMMA beads; average of two.
The target is the same in test [4]. Put plainly: KinExA, TL1A as CBP, free TL1A captured on 320-587-coated PMMA beads; repeat 1.
A further test has as its target T2, mouse TL1A (mouse, UniProt Q5UBV8 73-252).
T2 construct: recombinantly produced; whole entry named
T2 sequence: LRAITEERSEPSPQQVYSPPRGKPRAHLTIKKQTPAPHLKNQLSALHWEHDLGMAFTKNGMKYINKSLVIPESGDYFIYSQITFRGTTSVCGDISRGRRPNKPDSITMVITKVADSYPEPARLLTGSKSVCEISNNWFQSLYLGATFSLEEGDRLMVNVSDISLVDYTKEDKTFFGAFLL
Description: SPR: 320-587 captured on Protein A, TL1A of the species flowed over. For orientation: In SPR one partner is held on a chip, and binding of the other changes the refractive index at the surface.

The target in the next test is T3, cat TL1A (cat).
T3 construct: recombinantly produced; whole entry named
T3 chain: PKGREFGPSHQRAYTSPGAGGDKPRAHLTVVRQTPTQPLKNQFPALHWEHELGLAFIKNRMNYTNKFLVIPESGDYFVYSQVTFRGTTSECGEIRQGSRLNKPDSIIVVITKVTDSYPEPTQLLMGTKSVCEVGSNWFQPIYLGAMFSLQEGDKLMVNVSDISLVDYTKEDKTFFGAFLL
The test is described as above.

Another test addresses T4, rabbit TL1A (rabbit).
T4 construct: recombinantly produced; whole entry named
T4 chain: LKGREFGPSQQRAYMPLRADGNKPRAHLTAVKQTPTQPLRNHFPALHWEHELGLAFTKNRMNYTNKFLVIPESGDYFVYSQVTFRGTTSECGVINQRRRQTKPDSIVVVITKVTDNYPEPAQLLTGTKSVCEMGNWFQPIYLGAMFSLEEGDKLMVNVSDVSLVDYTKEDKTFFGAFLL
The description is as above.

A further test concerns the target T5, cynomolgus monkey TL1A (cynomolgus monkey, UniProt O95150 72-251 (human entry), limits assumed).
T5 construct: recombinantly produced; whole entry named
T5 chain: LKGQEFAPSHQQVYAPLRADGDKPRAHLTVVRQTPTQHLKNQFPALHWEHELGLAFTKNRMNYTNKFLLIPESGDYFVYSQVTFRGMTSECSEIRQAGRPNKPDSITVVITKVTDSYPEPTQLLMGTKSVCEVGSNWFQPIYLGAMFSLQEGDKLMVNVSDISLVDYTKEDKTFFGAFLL
The test is described as above.

A further test deals with T6, rat TL1A (rat, UniProt Q8K3Y7 73-252).
T6 construct: recombinantly produced; whole entry named
T6 sequence: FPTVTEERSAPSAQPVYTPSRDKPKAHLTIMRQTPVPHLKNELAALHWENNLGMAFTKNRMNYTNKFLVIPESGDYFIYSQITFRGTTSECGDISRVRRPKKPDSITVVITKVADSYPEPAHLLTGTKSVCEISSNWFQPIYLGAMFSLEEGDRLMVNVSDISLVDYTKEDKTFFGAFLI
Described as above.

The target in a further test is T7, guinea pig TL1A (guinea pig).
T7 construct: recombinantly produced; whole entry named
T7 chain: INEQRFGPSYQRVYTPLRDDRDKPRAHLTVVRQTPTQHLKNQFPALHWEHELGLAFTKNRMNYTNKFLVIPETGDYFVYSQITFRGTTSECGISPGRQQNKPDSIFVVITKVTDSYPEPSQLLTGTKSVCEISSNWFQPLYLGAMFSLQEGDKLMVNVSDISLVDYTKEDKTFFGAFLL
The description is as above.

For the next test, the target named is T8, dog TL1A (dog).
T8 construct: recombinantly produced; whole entry named
T8 chain: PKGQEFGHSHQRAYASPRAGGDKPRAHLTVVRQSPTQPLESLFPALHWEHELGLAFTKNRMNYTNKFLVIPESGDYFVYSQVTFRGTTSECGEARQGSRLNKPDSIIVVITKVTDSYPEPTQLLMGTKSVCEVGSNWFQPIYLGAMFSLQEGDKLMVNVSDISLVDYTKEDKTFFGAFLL
The description is as above.

Test [5] has as its target T1, human TL1A extracellular domain with …. Put plainly: KinExA, 320-587 as CBP, free 320-587 captured on TL1A-coated Sepharose beads; repeat 2.
Test [6] shares this target. Put plainly: KinExA, TL1A as CBP, free TL1A captured on 320-587-coated PMMA beads; repeat 2.
The target of test [7] is T9, single-site biotinylated human TL1A (human, UniProt O95150 72-251, single-site biotinylated (site not stated)).
T9 construct: construct used for biotinylation not described
T9 sequence: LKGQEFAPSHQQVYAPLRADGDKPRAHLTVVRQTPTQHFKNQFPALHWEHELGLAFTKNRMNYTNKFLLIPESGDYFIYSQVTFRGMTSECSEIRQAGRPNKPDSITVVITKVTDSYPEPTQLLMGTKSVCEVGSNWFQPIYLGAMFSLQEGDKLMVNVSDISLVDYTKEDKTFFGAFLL
Description: competition ELISA: antibody dilutions pre-incubated with biotinylated human TL1A (1 µg/ml), added to plate-coated DcR3/Fc; bound TL1A detected with streptavidin-HRP; blocked partner DcR3/Fc [bottom panel]. How it is done:
1.8. […] DR3/Fc Chimera (R&D Systems) or DcR3/Fc Chimera (R&D Systems) was coated onto a 96-well plate (Maxisorp, Nunc) at a concentration of 2 μg/ml.
(In an ELISA, binding on a coated surface is turned into a signal by an enzyme label.)

In test [8] the target is T10, human TL1A extracellular domain with N-terminal HIS and FLAG tag (human, UniProt O95150 72-251).
T10 construct: the whole entry is named; also called TNFSF15
T10 sequence: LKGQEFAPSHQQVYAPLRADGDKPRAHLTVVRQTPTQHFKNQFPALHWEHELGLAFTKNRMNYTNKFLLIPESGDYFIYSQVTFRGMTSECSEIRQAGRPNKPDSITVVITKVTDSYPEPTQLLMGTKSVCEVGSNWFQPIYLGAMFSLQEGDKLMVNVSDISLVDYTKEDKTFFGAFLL
Put plainly: KinExA, Sepharose beads coated with TL1A, 320-587 as the CBP, assay 3.

Test [9] has as its target T10, human TL1A extracellular domain with …. Put plainly: KinExA, Sepharose beads coated with TL1A, 320-587 as the CBP, average of 5 assays (SD 8.33).
The target is the same in test [10]. Put plainly: KinExA, Sepharose beads coated with TL1A, 320-587 as the CBP, assay 2.
For test [11] the target is unchanged. Put plainly: KinExA, PMMA beads coated with 320-587, TL1A as the CBP, assay 1. How it is done:
(§1) Using the time to reach equilibrium determined above, all curves were allowed to come to equilibrium in a 25° C. incubator for 3 days.

The target is the same in test [12]. Put plainly: KinExA, PMMA beads coated with 320-587, TL1A as the CBP, average of 3 assays (SD 13.5). As to the method: as §1
For test [13] the target is unchanged. Description: cell-based or functional assay.
For test [14] the target is unchanged. Put plainly: SPR Run 8, antibody on Protein A, TL1A 5 ug/mL, timepoint 44. The text has this: (§2) 1.5. Antibody expression and antigen binding as determined by SPR. Using a CM5 sensor chip (GE Healthcare) Protein A (Pierce) was coupled to the chip surface using an amine coupling kit (GE Healthcare). Protein A was coupled on flow cell 1 and 2 (or alternatively 3 and 4) using a BIACORE® T200. […] The amount of supernatant or purified protein (as well as the concentration) injected during the capture stage varied between runs and is specified in the header of the Tables 3-11. At the end of injection of the supernatant or purified antibody the change in response units was measured. This value was reported as Capture Level in Tables 3-11. […] The response units were measured prior to the end of the dissociation phase. […] The sensorgrams were double referenced (flow cell 2 is subtracted from flow cell 1 and a buffer blank). As there were a large number of antibody variants to screen, these were screened across different runs (Tables 3-11). […] A summary of the conditions used in each run is below:
(§3) 2.1. […] In some experiment the antibodies were purified using Protein A chromatography (See 1.4) and purified antibodies were used in BIACORE® (GE Healthcare) experiments.

Test [15] has the same target. Description: SPR Run 8, antibody on Protein A, TL1A 5 ug/mL, timepoint 590.
Description: as §2, §3

The target is the same in test [16]. Put plainly: KinExA, Sepharose beads coated with TL1A, 320-587 as the CBP, assay 5.
The target is the same in test [17]. Description: KinExA, PMMA beads coated with 320-587, TL1A as the CBP, assay 3. How it is done:
as §1

Test [18] has the same target. Description: KinExA, PMMA beads coated with 320-587, TL1A as the CBP, assay 2. How it is done: as §1
For test [19] the target is unchanged. Put plainly: KinExA, Sepharose beads coated with TL1A, 320-587 as the CBP, assay 4.
For test [20] the target is unchanged. Description: KinExA, Sepharose beads coated with TL1A, 320-587 as the CBP, assay 1.

B1: 320-587 (antibody, name in Kabat numbering, V domains shown)
VH: QVQLVQSGAEVKKPGASVKVSCKASGYTFTSYDINWVRQAPGQGLEWMGWLNPNSGYTGYAQKFQGRVTMTADRSTSTAYMELSSLRSEDTAVYYCAREVPETAAFEYWGQGTLVTVSS
VL: QSVLTQPPSVSGAPGQRVTISCTSSSSDIGAGLGVHWYQQLPGTAPKLLIEGYYNRPSGVPDRFSGSKSGTSASLTITGLLPEDEGDYYCQSWDGTLSALFGGGTKLTVLG
notes: human IgG1, lambda
As to B1, the kon in test [1] is 790000 M⁻¹ s⁻¹; in [2], 835000 M⁻¹ s⁻¹; in test [3], 593000 M⁻¹ s⁻¹; in [4] it was 611000 M⁻¹ s⁻¹; in test [5] it was 745000 M⁻¹ s⁻¹; in test [6], 574000 M⁻¹ s⁻¹. Further, the binding result with mouse TL1A, in the test with cat TL1A, with rabbit TL1A, with cynomolgus monkey TL1A, in the test with rat TL1A and with guinea pig TL1A was “binds” throughout. The binding result with dog TL1A was “binds”. The “IC50 (read off the curve)” value in [7] is about 1 µg/mL.

B2: 320-587 (antibody, name in Kabat numbering, V domains shown)
VH: QVQLVQSGAEVKKPGASVKVSCKASGYTFTSYDINWVRQAPGQGLEWMGWLNPNSGYTGYAQKFQGRVTMTADRSTSTAYMELSSLRSEDTAVYYCAREVPETAAFEYWGQGTLVTVSS
VL: QSVLTQPPSVSGAPGQRVTISCTSSSSDIGAGLGVHWYQQLPGTAPKLLIEGYYNRPSGVPDRFSGSKSGTSASLTITGLLPEDEGDYYCQSWDGTLSALFGGGTKLTVLG
notes: full-length human IgG1, lambda
In the case of B2, the dissociation constant (Kd) in test [8] was found to be 0.0463 nM; in [9], 0.041 nM; in test [10], 0.052 nM; in test [11], 0.0334 nM; in test [12] it was 0.0415 nM; in [16] it was 0.0337 nM. Moreover, the Kd in test [17] came to 0.0341 nM; in test [18], 0.0571 nM; in [19], 0.0324 nM; in [20], 0.0404 nM. Besides, the “Antibody IC50, TL1A induced caspase potency assay in TF-1 cells” value in test [13] was found to be 0.001 µg/mL. The “Fold improvement over 320-179, TL1A induced caspase potency assay in TF-1 cells” value in test [13] turned out to be 40 fold. In addition, the “TL1A Binding Level (Early)” value in [14] was found to be 123 RU. For the same molecule, the “TL1A Binding Level (Late)” value in test [15] was 122 RU.
